According to US20240368285A1 (HEFEI TG IMMUNOPHARMA, published 2024):
Where two headings read alike, the source gives them in different places.

Legend:
[1] = target: T1, MICA004α3-Fc (human); assay: ELISA on coated MICA*004 α3-Fc (1 µg/ml), HRP anti-human Fab secondary, OD450
T1 construct: also called MICA*004-Fc; domain α3 of MICA-004 Fc fusion protein

[2] = target: T2, MICA on human tumor cells (A-375, A549, HCT-15, MDA-MB-231) (human, UniProt Q29983 24-383); assay: flow cytometry on A-375 cells, Alexa-647 goat anti-human secondary, average fluorescence intensity
T2 construct: whole, on cells
T2 sequence (looked up): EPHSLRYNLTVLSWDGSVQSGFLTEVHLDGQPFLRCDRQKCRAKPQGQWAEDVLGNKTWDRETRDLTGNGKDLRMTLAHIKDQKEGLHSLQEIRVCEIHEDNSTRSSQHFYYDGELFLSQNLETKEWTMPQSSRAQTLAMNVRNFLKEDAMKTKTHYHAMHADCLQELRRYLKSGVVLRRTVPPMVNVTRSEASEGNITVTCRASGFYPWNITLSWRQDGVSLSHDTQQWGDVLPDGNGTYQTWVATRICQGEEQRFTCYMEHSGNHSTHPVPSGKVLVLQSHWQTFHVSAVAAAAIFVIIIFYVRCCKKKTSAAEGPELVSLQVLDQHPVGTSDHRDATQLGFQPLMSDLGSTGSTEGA
Method: (1) Tumor cells were diluted to a density of 2×10⁶/mL with PBS and then added into a 1.5 ml EP tube in a volume of 100 l/tube. 10 l/tube of goat serum was added into the EP tube; and blocking was conducted at 4° C. for 30 min. Antibody h5A1 (having a heavy chain sequence as set forth in SEQ ID NO: 11 and a light chain sequence as set forth in SEQ ID NO: 12), antibody h5A1002 (having a heavy chain sequence as set forth in SEQ ID NO: 13 and a light chain sequence as set forth in SEQ ID NO: 14), and control IgG1 (purchased from Biointron) were gradient-diluted (at a highest working concentration of 50 μg/ml, 10 gradients, diluted by 3 times for each gradient) and added. The tube was incubated at 4° C. for 30 min. 1 mL of PBS was added into the EP tube, and centrifugation was conducted 4° C. at a rate of 3,500 rpm for 5 min. The supernatant was removed. The EP tube was washed once with the PBS. The supernatant was removed after centrifugation. The cells were resuspended with PBS in a volume of 100 l/tube. An Alexa-647 labeled goat anti-human secondary antibody (purchased from Jackson lab) was added into the tube in a volume of 1 l/tube; and the plate was incubated in the dark at 4° C. for 30 min. The tube was washed twice with PBS, and the supernatant was removed after centrifugation. […]

[3] = target: T3, MICB001α3-Fc; assay: ELISA on coated MICB*001 α3-Fc (1 µg/ml), HRP anti-human Fab secondary, OD450
T3 construct: also called MICB*001-Fc; domain α3 of MICB-001 Fc fusion protein
T3 sequence (chain, as listed by the source limits assumed): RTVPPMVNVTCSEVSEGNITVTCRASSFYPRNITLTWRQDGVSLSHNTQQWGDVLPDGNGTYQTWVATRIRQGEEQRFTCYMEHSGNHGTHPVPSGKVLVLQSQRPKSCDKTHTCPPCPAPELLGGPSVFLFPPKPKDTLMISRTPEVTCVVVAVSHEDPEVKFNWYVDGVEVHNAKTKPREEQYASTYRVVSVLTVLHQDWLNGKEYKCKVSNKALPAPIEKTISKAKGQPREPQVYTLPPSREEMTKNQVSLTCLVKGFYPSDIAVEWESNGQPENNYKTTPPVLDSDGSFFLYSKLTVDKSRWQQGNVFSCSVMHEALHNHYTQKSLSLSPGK
Method: (§1) After the antibodies were added, signal intensity was used for judging the binding characteristics of the antibodies and MICA and MICB.
(§2) The fusion proteins (produced in the Applicant's laboratory; an amino acid sequence of MICA002α3-Fc is as set forth in SEQ ID NO: 22; an amino acid sequence of MICA005α3-Fc is as set forth in SEQ ID NO: 24; an amino acid sequence of MICA008α3-Fc is as set forth in SEQ ID NO: 25; an amino acid sequence of MICA004α3-Fc is as set forth in SEQ ID NO: 23; an amino acid sequence of MICB001α3-Fc is as set forth in SEQ ID NO: 26; and an amino acid sequence of MICB005α3-Fc is as set forth in SEQ ID NO: 27) were diluted to a concentration of 1 μg/ml with PBS and then added into a 96-well plate in a volume of 100 μl/well. The plate was placed at 4° C. overnight. The PBS in the 96-well plate was removed by sucking. After the plate was washed with PBST (that is, PBS having a pH value of 7.2 included 0.1 volume % of Tween 20) for 6 times, PBS containing 10% of BSA was added in a volume of 200 μl/well. The plate was incubated at 37° C. for 2 hours for blocking. The blocking solution was removed. […]

[4] = target: T1, MICA004α3-Fc; assay: ELISA on coated MICA*004 α3-Fc (1 µg/ml), HRP anti-human Fab secondary, OD450; remark: listed apart in the source
Method: as §1, §2

T1 sequence (chain, as listed by the source limits assumed): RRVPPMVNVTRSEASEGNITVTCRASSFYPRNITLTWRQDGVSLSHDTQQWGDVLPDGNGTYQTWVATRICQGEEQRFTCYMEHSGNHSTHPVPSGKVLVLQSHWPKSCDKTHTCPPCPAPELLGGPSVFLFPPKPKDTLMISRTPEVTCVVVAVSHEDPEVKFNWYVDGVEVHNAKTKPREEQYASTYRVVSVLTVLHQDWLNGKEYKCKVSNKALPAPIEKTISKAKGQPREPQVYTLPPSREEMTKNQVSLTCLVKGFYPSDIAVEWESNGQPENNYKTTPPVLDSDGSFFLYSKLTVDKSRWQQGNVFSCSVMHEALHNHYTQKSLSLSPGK

B1: affinity maturation antibody h5A1002 (antibody, V domains shown)
VH: QVQLQESGPGLVKPSETLSLTCTVSGFSLTTYGGHWIRQPPGKGLEWIGMIWTDGWTDYNAAFISRVTISVDTSKNQFSLKLSSVTAADTAVYYCARKGHGYYYAMDYWGQGTLVTVSS
VL: EIVLTQSPGTLSLSPGERATLSCTASSSVSSSYLHWYQQKPGQAPRLLIYSTSNLISGIPDRFSGSGSGTDFTLTISRLEPEDFAVYYCHQYHRSPFTFGQGTKLEIKR
notes: Human IgG1, kappa; also called h5A1002-hIgG1
- EC50 (read off the curve) [1]: ~0.04 µg/mL
- EC50 (read off the curve) [2]: ~2 µg/mL
- EC50 (read off the curve) [3]: ~0.05 µg/mL
- EC50 (read off the curve) [4]: ~0.07 µg/mL
